Experimental data reported in patent US20220380407A1 (WASHINGTON UNIVERSITY, published 2022).
Positions of bridges follow the written chain, without caps; N, C: chain ends. Non-standard residues stand in square brackets, D forms with d. No end group written: not given here. *: point of attachment. X10 = 1‑((2,4-dinitrophenyl)sulfonyl)piperidin‑4‑yl carbamate, O=C(OC1CCN(S(=O)(=O)c2ccc([N+](=O)[O-])cc2[N+](=O)[O-])CC1)*; X9 = 1‑((5-chloro-2-methoxyphenyl)sulfonyl)piperidin‑4‑yl carbamate, COc1ccc(Cl)cc1S(=O)(=O)N1CCC(OC(=O)*)CC1; X11 = 1‑((3-fluorophenyl)sulfonyl)piperidin‑4‑yl carbamate, O=C(OC1CCN(S(=O)(=O)c2cccc(F)c2)CC1)*; X8 = 1‑((4-chlorophenyl)sulfonyl)piperidin‑4‑yl carbamate, O=C(OC1CCN(S(=O)(=O)c2ccc(Cl)cc2)CC1)*; X13 = 1‑((2-fluorophenyl)sulfonyl)piperidin‑4‑yl carbamate, O=C(OC1CCN(S(=O)(=O)c2ccccc2F)CC1)*; X12 = 1‑(mesitylsulfonyl)piperidin‑4‑yl carbamate, Cc1cc(C)c(S(=O)(=O)N2CCC(OC(=O)*)CC2)c(C)c1; X7 = 1‑acetylpiperidin‑4‑yl carbamate, CC(=O)N1CCC(OC(=O)*)CC1; kbt = C-terminal Arg ketobenzothiazole; Fmoc = O=C(OCC1c2ccccc2-c2ccccc21)*; kt = C-terminal Arg ketothiazole

T1: recombinant N-terminal His-tag HGFA serine protease domain (UniProt Q04756 373-655)
T1 sequence (looked up): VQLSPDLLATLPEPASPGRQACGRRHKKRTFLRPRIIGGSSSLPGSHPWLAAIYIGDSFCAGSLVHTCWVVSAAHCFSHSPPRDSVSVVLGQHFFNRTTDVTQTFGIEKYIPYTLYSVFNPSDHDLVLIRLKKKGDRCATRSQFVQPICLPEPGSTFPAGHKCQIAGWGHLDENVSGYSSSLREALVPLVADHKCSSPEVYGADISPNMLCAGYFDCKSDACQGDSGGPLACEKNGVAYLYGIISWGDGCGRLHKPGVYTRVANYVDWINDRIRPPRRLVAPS

T2: matriptase (#3946-SE-010, R&D Systems) (UniProt Q9Y5Y6 615-855)
T2 sequence (looked up): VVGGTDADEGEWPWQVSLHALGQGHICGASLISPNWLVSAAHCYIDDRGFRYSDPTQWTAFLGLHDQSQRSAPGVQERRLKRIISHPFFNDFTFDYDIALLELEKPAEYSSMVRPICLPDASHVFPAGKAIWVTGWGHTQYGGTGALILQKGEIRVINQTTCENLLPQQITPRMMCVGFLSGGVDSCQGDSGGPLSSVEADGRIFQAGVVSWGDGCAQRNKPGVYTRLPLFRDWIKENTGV

T3: KLK5 (#1108-SE-010, R&D Systems) (UniProt Q9Y337 23-293, limits assumed)
T3 sequence (looked up): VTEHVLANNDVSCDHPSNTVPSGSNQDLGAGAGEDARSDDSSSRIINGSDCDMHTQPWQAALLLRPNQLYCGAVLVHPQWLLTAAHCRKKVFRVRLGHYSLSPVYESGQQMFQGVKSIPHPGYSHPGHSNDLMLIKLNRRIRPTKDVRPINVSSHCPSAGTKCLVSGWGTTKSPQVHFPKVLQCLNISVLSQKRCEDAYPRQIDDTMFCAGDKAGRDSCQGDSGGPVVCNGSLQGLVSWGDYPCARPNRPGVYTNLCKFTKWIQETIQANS

B1: MM3144 Ac-QFR-kbt (peptide)
peptide: Ac-Gln-Phe-Arg-kbt
B2: MM3116 Ac-IQFR-kbt (peptide)
peptide: Ac-IQFR-kbt
B3: MM3122 Ac-GQFR-kbt (peptide)
peptide: Ac-GQFR-kbt
B4: Cyclo(DQK)R-kbt, VD3152 (peptide)
peptide: Ac-DQKR-kbt
modifications: lactam 1-3; also: N-terminal acetyl described as 6-acetamido
B5: MM3123 Ac-PQFR-kbt (peptide)
peptide: Ac-PQFR-kbt
B6: Cyclo(DMK)R-kbt, VD3173 (peptide)
peptide: Ac-DMKR-kbt
modifications: lactam 1-3; not fully specified; printed as Cyclo(DMK)R-kbt; also: N-terminal acetyl described as 6-acetamido
B7: MM3130 Ac-MQFR-kbt (peptide)
peptide: Ac-MQFR-kbt
B8: MM3131 Ac-LQFR-kbt (peptide)
peptide: Ac-LQFR-kbt
B9: Ac-dWFR-kbt, PK-1-89A1 (peptide)
peptide: Ac-[dW]-Phe-Arg-kbt
B10: H-LLR-kbt V-amide ZFH7182 (peptide)
peptide: Leu-Leu-Arg-{kbt-Val-NH2}
modifications: also: N-terminal cap inconsistent in filing (H or Ac)
B11: Ac-KQLR-kbt, ZFH7006 (peptide)
peptide: Ac-KQLR-kbt
B12: Ac-LLR-kt, ZFH6201 (peptide)
peptide: Ac-Leu-Leu-Arg-kt
B13: Ac-WLFR-kbt, ZFH7064 (peptide)
peptide: Ac-WLFR-kbt
B14: 1-((2,4-dinitrophenyl)sulfonyl)piperidin-4-yl Leu-Arg-kbt carbamate (8k) (peptide)
peptide: X10-Leu-Arg-kbt
B15: 1-acetylpiperidin-4-yl Leu-Arg-kbt carbamate (8e) (peptide)
peptide: X7-Leu-Arg-kbt
B16: 1-((4-chlorophenyl)sulfonyl)piperidin-4-yl Leu-Arg-kbt carbamate (8i) (peptide)
peptide: X8-Leu-Arg-kbt
B17: 1-((3-fluorophenyl)sulfonyl)piperidin-4-yl Leu-Arg-kbt carbamate (8j) (peptide)
peptide: X11-Leu-Arg-kbt
B18: 1-((2-fluorophenyl)sulfonyl)piperidin-4-yl Leu-Arg-kbt carbamate (8g) (peptide)
peptide: X13-Leu-Arg-kbt
B19: 1-(mesitylsulfonyl)piperidin-4-yl Leu-Arg-kbt carbamate (8m) (peptide)
peptide: X12-Leu-Arg-kbt
B20: 2-phenyl-1-(piperidin-4-yl)ethyl Leu-Arg-kbt carbamate (11b) (peptide)
peptide: {2‑phenyl‑1‑(piperidin-4-yl)ethyl carbamate}-Leu-Arg-kbt
B21: 1-((5-chloro-2-methoxyphenyl)sulfonyl)piperidin-4-yl Leu-Arg-kbt carbamate (8l) (peptide)
peptide: X9-Leu-Arg-kbt
B22: FmocWRkbt (peptide)
peptide: Fmoc-Trp-Arg-kbt
B23: Ac-SKLR kbt, ZFH7053 (peptide)
peptide: Ac-SKLR-kbt
B24: Ac-SQLR-kt, ZFH6138 (peptide)
peptide: Ac-SQLR-kt
B25: FmocPRkbt (peptide)
peptide: Fmoc-Pro-Arg-kbt
B26: Ac-WFR-kbt, PK-1-102A1 (peptide)
peptide: Ac-Trp-Phe-Arg-kbt

What follows are binders tested against recombinant thrombin (#1473-SE-010, R&D Systems) (UniProt P00734 44-622) (assay: cell-based or functional assay).
In the case of B1, the “Thrombin* (IC50 nM)” value is reported as over 20 nM.
B2 was tested, and the “Thrombin* (IC50 nM)” value was over 20 nM.
With B3 the “Thrombin* (IC50 nM)” value was over 20 nM.
For B4, the “Thrombin* (IC50 nM)” value was over 20000 nM.
B5 was tested, and the “Thrombin* (IC50 nM)” value was over 20 nM.
In the case of B6, the “Thrombin* (IC50 nM)” value is reported as over 20000 nM.
With B7 the “Thrombin* (IC50 nM)” value was over 20 nM.
For B8, the “Thrombin* (IC50 nM)” value was over 20 nM.

Each binder was assayed against T1, recombinant N-terminal His-tag HGFA … (assay: cell-based or functional assay).
With B1 the “HGFA (IC50 nM)” value was 13.8 nM.
With B2 the “HGFA (IC50 nM)” value was 30.2 nM.
For B3, the “HGFA (IC50 nM)” value was 32.5 nM.
With B4 the “HGFA (IC50 nM)” value was 16100 nM.
B5 was tested, and the “HGFA (IC50 nM)” value was 75 nM.
In the case of B6, the “HGFA (IC50 nM)” value is reported as 3240 nM.
With B7 the “HGFA (IC50 nM)” value was 36.5 nM.
In the case of B8, the “HGFA (IC50 nM)” value is reported as 98.2 nM.

These binders were tested against T2, matriptase (#3946-SE-010, R&D Systems) (assay: cell-based or functional assay).
B2 was tested, and the “Matriptase (IC50 nM)” value was 0.923 nM.
For B3, the “Matriptase (IC50 nM)” value was 0.314 nM.
For B4, the “Matriptase (IC50 nM)” value was 7.7 nM.
For B5, the “Matriptase (IC50 nM)” value was 0.316 nM.
With B6 the “Matriptase (IC50 nM)” value was 0.98 nM.
B7 was tested, and the “Matriptase (IC50 nM)” value was 0.552 nM.
For B8, the “Matriptase (IC50 nM)” value was 1.8 nM.

The binders below were run against Factor Xa (#1063-SE-010, R&D Systems) (UniProt P00742 41-488, limits assumed) (assay: cell-based or functional assay).
Factor Xa (#1063-SE-010, R&D Systems), sequence (P00742 41-488 limits assumed): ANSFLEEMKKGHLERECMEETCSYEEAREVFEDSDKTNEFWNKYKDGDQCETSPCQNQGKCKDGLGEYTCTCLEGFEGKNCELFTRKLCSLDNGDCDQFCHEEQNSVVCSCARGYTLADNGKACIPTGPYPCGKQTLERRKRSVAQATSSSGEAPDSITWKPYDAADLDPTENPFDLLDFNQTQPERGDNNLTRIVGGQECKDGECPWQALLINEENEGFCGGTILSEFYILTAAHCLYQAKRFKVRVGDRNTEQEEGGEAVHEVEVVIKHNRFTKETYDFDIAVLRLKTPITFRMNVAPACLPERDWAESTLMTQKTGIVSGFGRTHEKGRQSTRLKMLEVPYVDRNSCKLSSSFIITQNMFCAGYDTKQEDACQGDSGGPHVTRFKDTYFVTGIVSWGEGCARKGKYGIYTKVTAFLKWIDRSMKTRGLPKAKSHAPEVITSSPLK
B1 was tested, and the “Factor Xa* (IC50 nM)” value was 1.4 nM.
With B2 the “Factor Xa* (IC50 nM)” value was 792 nM.
In the case of B3, the “Factor Xa* (IC50 nM)” value is reported as 700 nM.
In the case of B4, the “Factor Xa* (IC50 nM)” value is reported as over 20000 nM.
For B5, the “Factor Xa* (IC50 nM)” value was 199 nM.
B6 was tested, and the “Factor Xa* (IC50 nM)” value was 1400 nM.
B7 was tested, and the “Factor Xa* (IC50 nM)” value was 342 nM.
With B8 the “Factor Xa* (IC50 nM)” value was 219 nM.

The binders below were run against T4, activated hepsin (#4776-SE-010, R&D Systems) (UniProt P05981 45-417, limits assumed) (assay: cell-based or functional assay).
T4 sequence (P05981 45-417 limits assumed): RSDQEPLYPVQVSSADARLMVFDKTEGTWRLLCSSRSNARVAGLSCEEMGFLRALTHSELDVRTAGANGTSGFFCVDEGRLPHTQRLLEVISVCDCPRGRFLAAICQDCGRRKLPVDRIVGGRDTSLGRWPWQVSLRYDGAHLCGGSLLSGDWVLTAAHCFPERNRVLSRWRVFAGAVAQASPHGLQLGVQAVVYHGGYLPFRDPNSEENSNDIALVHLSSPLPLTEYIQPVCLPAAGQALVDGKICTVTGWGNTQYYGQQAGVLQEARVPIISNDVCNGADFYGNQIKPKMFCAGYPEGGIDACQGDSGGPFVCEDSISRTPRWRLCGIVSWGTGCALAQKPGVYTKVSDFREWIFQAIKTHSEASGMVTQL
In the case of B2, the “Hepsin (IC50 nM)” value is reported as 0.14 nM.
For B3, the “Hepsin (IC50 nM)” value was 0.194 nM.
With B4 the “Hepsin (IC50 nM)” value was 22.2 nM.
With B5 the “Hepsin (IC50 nM)” value was 0.136 nM.
In the case of B6, the “Hepsin (IC50 nM)” value is reported as 5.9 nM.
In the case of B7, the “Hepsin (IC50 nM)” value is reported as 0.135 nM.
For B8, the “Hepsin (IC50 nM)” value was 0.247 nM.

What follows are binders tested against human TMPRSS2 (human, UniProt O15393 1-492) (assay: cell-based or functional assay).
human TMPRSS2, sequence (O15393 whole entry): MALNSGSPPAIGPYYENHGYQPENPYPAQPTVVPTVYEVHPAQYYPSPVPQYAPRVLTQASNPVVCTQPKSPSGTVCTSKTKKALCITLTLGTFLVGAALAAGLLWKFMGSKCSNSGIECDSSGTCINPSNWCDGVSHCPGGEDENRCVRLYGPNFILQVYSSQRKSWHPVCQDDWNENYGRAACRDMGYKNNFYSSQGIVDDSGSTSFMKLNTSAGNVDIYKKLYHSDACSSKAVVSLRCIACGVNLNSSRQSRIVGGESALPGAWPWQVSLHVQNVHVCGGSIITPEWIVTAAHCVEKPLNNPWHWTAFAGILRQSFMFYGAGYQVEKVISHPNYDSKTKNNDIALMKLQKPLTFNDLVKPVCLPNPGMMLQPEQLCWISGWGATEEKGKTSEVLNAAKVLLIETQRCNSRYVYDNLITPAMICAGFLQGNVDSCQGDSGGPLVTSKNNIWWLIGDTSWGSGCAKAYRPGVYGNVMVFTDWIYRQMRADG
For B9, the “Calu-3 EC50” value was 32 nM.
For B10, the “Calu-3 EC50” value was 2060 nM.
In the case of B4, the “Calu-3 EC50” value is reported as 138 nM.
For B11, the “Calu-3 EC50” value was 78 nM.
B6 was tested, and the “Calu-3 EC50” value was 119 nM.
In the case of B12, the “Calu-3 EC50” value is reported as 349 nM.
With B13 the “Calu-3 EC50” value was 150 nM.

Target: T1, recombinant N-terminal His-tag HGFA …
Assay: cell-based or functional assay
Remark: another data set of the same source
With B9 the “HGFA IC50” value was 346 nM.
B10 was tested, and the “HGFA IC50” value was 44 nM.
In the case of B4, the “HGFA IC50” value is reported as 16100 nM.
In the case of B11, the “HGFA IC50” value is reported as 60 nM.
For B6, the “HGFA IC50” value was 3240 nM.
B12 was tested, and the “HGFA IC50” value was 506 nM.
For B13, the “HGFA IC50” value was 266 nM.

Target: T2, matriptase (#3946-SE-010, R&D Systems)
Assay: cell-based or functional assay
Remark: another data set of the same source
B9 was tested, and the “Matriptase IC50” value was 29 nM.
With B4 the “Matriptase IC50” value was 7.7 nM.
With B11 the “Matriptase IC50” value was 1.1 nM.
With B6 the “Matriptase IC50” value was 1 nM.
With B12 the “Matriptase IC50” value was 56 nM.
In the case of B13, the “Matriptase IC50” value is reported as 12 nM.

Target: T4, activated hepsin (#4776-SE-010, R&D …)
Assay: cell-based or functional assay
Remark: another data set of the same source
For B9, the “Hepsin IC50” value was 100 nM.
For B10, the “Hepsin IC50” value was 0.01 nM.
With B4 the “Hepsin IC50” value was 22 nM.
With B11 the “Hepsin IC50” value was 0.17 nM.
B6 was tested, and the “Hepsin IC50” value was 5.9 nM.
With B12 the “Hepsin IC50” value was 4.6 nM.
For B13, the “Hepsin IC50” value was 0.79 nM.

Target: T1, recombinant N-terminal His-tag HGFA …
Assay: cell-based or functional assay
Remark: another data set of the same source
B14 was tested, and the “HGFA IC50” value was over 20000 nM.
In the case of B15, the “HGFA IC50” value is reported as over 20000 nM.
For B16, the “HGFA IC50” value was 9000 nM.
With B17 the “HGFA IC50” value was over 20000 nM.
For B18, the “HGFA IC50” value was 18000 nM.
For B19, the “HGFA IC50” value was 8800 nM.
For B20, the “HGFA IC50” value was 6000 nM.
For B21, the “HGFA IC50” value was 6300 nM.

Target: T2, matriptase (#3946-SE-010, R&D Systems)
Assay: cell-based or functional assay
Remark: another data set of the same source
With B14 the “Matriptase IC50” value was 10000 nM.
B15 was tested, and the “Matriptase IC50” value was 640 nM.
For B16, the “Matriptase IC50” value was 2400 nM.
B17 was tested, and the “Matriptase IC50” value was 7500 nM.
For B18, the “Matriptase IC50” value was 4500 nM.
With B19 the “Matriptase IC50” value was over 20000 nM.
In the case of B20, the “Matriptase IC50” value is reported as 20 nM.
For B21, the “Matriptase IC50” value was 4000 nM.

Target: T4, activated hepsin (#4776-SE-010, R&D …)
Assay: cell-based or functional assay
Remark: another data set of the same source
For B14, the “Hepsin IC50” value was 110 nM.
B15 was tested, and the “Hepsin IC50” value was 20 nM.
B16 was tested, and the “Hepsin IC50” value was 60 nM.
With B17 the “Hepsin IC50” value was 70 nM.
In the case of B18, the “Hepsin IC50” value is reported as 70 nM.
For B19, the “Hepsin IC50” value was 110 nM.
With B20 the “Hepsin IC50” value was 2 nM.
B21 was tested, and the “Hepsin IC50” value was 60 nM.

What follows are binders tested against T3, KLK5 (#1108-SE-010, R&D Systems) (assay: cell-based or functional assay).
With B22 the “KLK5 IC50” value was 4390 nM.
For B23, the “KLK5 IC50” value was 2120 nM.
In the case of B24, the “KLK5 IC50” value is reported as 3940 nM.
B11 was tested, and the “KLK5 IC50” value was 1790 nM.
For B25, the “KLK5 IC50” value was 3680 nM.
B26 was tested, and the “KLK5 IC50” value was over 20000 nM.
